Laboratory results as given in a protein production outcome set (Wang et al. 2014).

test: label from the status in PepcDB records

Sequence	protein production
MADTHPLVTVETIVLVGLGGFAGSNLRYFVGLFFPGLQGTLLVNVCGSFALGVLVYEGLQVGALASETKLAASTGFISSFTTYSTFAVETVLTPEWAVANVVGSYALGFAGVLVGREVVRLFAGGGQ	failed
MADTITVSIVLAYFVVTLALGFFAARKIKTAEHYYGARKLFGMFVTAVAVFSGIASAFTFIGGPGLVYPMGGTVNWVIWTPVISMPLIWYLLGKRIKLITEARPVATLPDLTAARFKSDAVRFLTAVALIFGIITYLAGNVMGAGLVLTDMLGTPLELSIAIVFGIIMLYTAFGGMVASILTDFFQGLVMMVAAIIFVVFILIMTGGVENLFATIAESNPRHIDPIGVGPIWLGIMGWWWALNIGSSVQPHAVTKFFALKDYRDLKWGALVTTIAWTLACLMWFFGGYASVWVVIKGLAEAPARSDQAIFGVIAQMPVVLKAVIYAGVLAAIMSTVSGFISMGTAAVVRDIPTAIGKSLSQRGQILWGRVVTVILTVVAALFGYYGGYVVGILVTLGLGYFASMLFPLLVIGLNWKRATKEAAIITTALTVAMNLGFLVYEKVLSMSLPYGLPGYGVTFAVGIITMVLVSLITKGAALDDMDEDIRAAMSL	failed
MADTRPERRFTRIDRLPPYVFNITAELKMAARRRGEDIIDFSMGNPDGATPPHIVEKLCTVAQRPDTHGYSTSRGIPRLRRAISRWYQDRYDVEIDPESEAIVTIGSKEGLAHLMLATLDHGDTVLVPNPSYPIHIYGAVIAGAQVRSVPLVEGVDFFNELERAIRESYPKPKMMILGFPSNPTAQCVELEFFEKVVALAKRYDVLVVHDLAYADIVYDGWKAPSIMQVPGARDVAVEFFTLSKSYNMAGWRIGFMVGNKTLVSALARIKSYHDYGTFTPLQVAAIAALEGDQQCVRDIAEQYKRRRDVLVKGLHEAGWMVEMPKASMYVWAKIPEPYAAMGSLEFAKKLLNEAKVCVSPGIGFGDYGDTHVRFALIENRDRIRQAIRGIKAMFRADGLLPASSKHIHENAE	failed
MADTSPSACLVFQGSGFYAKLSDFRACLTGFMLPLSPSLLPTLAAAVLYAAATFYQGSRLATGAKANKRLLVTLGILALLAHAASLLTHLLTPVGLGLDFFSAASLIAAAVIALTLLACWRIPVENLLVLLFPLGALTALLAQFVPTGTVPVIDEEPGILAHILLSILAYGMFTIAVFQALLLLVQDHQLKNKHPSGLIRNFPPLQTMESLLFGFLWAGWTLLSLSLISGWLFVENLFAQHLVHKTLLACLAWVVFSVLLWGRNRLGWRGHKAIRWTLAGFCLLMLAYFGSKLVREYILHI	failed
MADYNNAVVFYDTSGIEYSKQIKKTLERGFERECFLINLDNRENTLSRLNLAMKTSKYVIFLFSSMYSNENMLDEAKTAFNSDKHIISLKLDDPELKKQISIHQSEFEDNYGLSKKVNDEVEKLKKMEKKGTDFVESQISFNMGNIYFNFGKYAEAIRCYKKAVKIIPDFVDALHNFNSLSNMNLFDMGEEPKKPVLYKDVTIDELVPDIFSNTVQKEPEEPQKYSELEPEELEDLILDGEIGENLEEIGSEDELTEKIDDKLPEIDESKDKSKAQPEDELNETFEEGIEYETFEVIDAEEKNEISDENLEISSLEPEFEEKSIFKLEKETEQPELEENLEPVLEVPEELVEDVEILDASEEDIEKELENQEVIIEEKLETLDELLDKSELESELVEEHTYEIDNNEFLEILSFANTLYESGDFEAAKTEYKKAIALNPGNSEVHNHYGCLLEYLEKYGEAEIEFKKAVALDGSNSKAYNNLATFLAKSEKYDEAEEHYKKAIEIAPDYWAAIYNLAAMYAALKRYDEAVAQVKSMVKIFRSDGNIKEVLELKKLIKHLKKLKIQKS	failed
MAEARRDGRLPLTLVGGFLGAGKSTWLRHQLHAGRFARHHLLVNEAAETPVDNLLLGGAARLTLLAGGCACCEGQAQLRAALRAICETESGPEAGGIEGILLETSGLADPGAIAAMVAADPVLVRRLALAETLVLVDAAHGTAQLAAEPLARAQIEAAGRLVLTKPAAAPDLARLAATLRALAPEAELSAAERGVPVPLPAGAAEPYPLPPLAAAAPIRPHRLRIGAEGGWVALSTWLSALLQARGEDVVRVKGVVRTPAGRLLLQSVRRMVQPPETLPEGADLPGPAPPPRRERSC	failed
MAEDEIVVEEEQSQPQEITPVPPSSSSSPSLVVEDDDEMKLKHLEFIQVAAVYFAACFSTLYELAKDNAGPLKLGVENIEDCVRTVLAPLYEKFHDVPFKLLLFVDRKVDDVFFDVETYVPSLVKQASSQALTVATEVQRTGVVDTTKSIARSVRDKYEPAAEYYAATLWRLLNQLPLFPEVAHLVIPTAFYWSEKYNDAVRYVGDRDYFGAEYLPMIPIEKISDILEQDQCRAD	failed
MAEDTYEEECDYLFKAVLIGDSAVGKSNLLSRFSKDEFRFDSKPTIGVEFAYRNVHVGDKIIKAQIWDTAGQERFRAITSSYYRGALGALLIYDITRRTTFDNIKKWLFELRDFANPETVVVLVGNKSDLRQSREVEEDEGKTLAESEGLYFLETSALENVNVEEAFLVMIGRIHEVVTQRIASENKSNGAATPHINGNGNGTVLPVGKEIVNIHEVTATQPLLSSSSNCCFK	failed
MAEELDDLTKFEAKGTSHHLPVGWLALFWGLIVFGAYYYWAYSPALGGWSQAKDLETGGASSGANLLWTIAFTAVPALVAIWMGLTQKKKAR	failed
MAEELLAPEVIADLKARAISQPLVEHIYTADPSAHVFNGKIYIYPSHDIEAGIPFNDNGDHFGMEDYHVISLDSPDSPAVDNGVALHVKDVAWAERQMWPPDAAHKNGKYYLYFPAKRANGIFQIGVAVGDSPIGPFKAEPEAIKGSYSIDPAVFEDNDGEYYMYYGGIWGGQLQNYRNNQYDANRGEPADNEPALGPIVARLTADMKEFAEAPREIQILDQDGKPLLAGDHDRRFFEASWVHKYNDQYYFSYSTGNTHFLCYATGDNPYGPFTYRGQILTPVIGWTTHHSIAEYQGQWYLFYHDCVLSKGITHLRSVKMAPLTHKADGSIETITPYRD	failed
MAEFLHRFAQGFAALNKDNLDQVAELYSEDVSFSDPMHDIHGLAAMQRYFAELYANVRDLHFDFHAFDEVRPGEGYLVWTMSYSHPRLAGGRTIRVEGCSHLKWRDKVYRHRDYFDAGALLYEHLP	failed
MAEFTHLVNERRSASNFLSGHPITKEDLNEMFELVALAPSAFNLQHTKYVTVLDQDVKEKLKQAANGQYKVVSSSAVLLVLGDKQAYQQAADIYEGLKVLGILNKQEYDHMVQDTVSFYENRGEQFKRDEAIRNASLSAMMFMLSAAAAGWDTCPMIGFDAEAVKRILNIDDQFEVVMMITIGKEKTESRRPRGYRKPVNEFVEYM	not failed
MAEHAPHFTITPLGGLGEIGLNCQVWSTADSTVLIDCGLMFPDDYHLGVDVVIPRFDHILQQRDKVRGIILTHGHEDHIGALPWLVPHLRGIPIFGSRFTLALVEHKLREHGLADRVEFVPVTPGTPLALGDMTFHFLPVCHSIIEGYAVGVETPVGRVLHTGDFKIDPHPLEGSGTDLDLFRSFAGDEGVRLLLSDSTNIEREGHSLPEREILSSFRHIFTEAQGRIVITLFSSHIQRIQEVFDLAAEFGRTVVVSGRSLMTNIELAREHGFLRVPPALHMDAAGLPPVADRDMVLLVTGSQGEPLSALSRITMGEHKHLTIHEGDTVVMSSRIIPGNARAITRLINQIYRLGAEVYYDKFRAIHASGHAHRDELRAMIETMRPQCFVPVHGEYRHLVKHARLAQECGVAPERAFILENGDPLTLLPQGVRLGERIHVESILVDGKGVGDVGHSVLKERHILGGEGMVIVVLVVDEVTWDVLHGPEMLSKGFVFEQHYNHVLEDAKCIVLDIFENIPPGETERLQDRIRSALRRFFRKVLERDPIVVPVITTI	failed
MAEHIITLVLSGERLDVTTSTPFVVALRDLLYEGDWELLKEDMKKKENIMKEVQTCEKLEKVVHLDETVYEPLIFPEFQEWLREENITPKDFKNVSLKGLYDLALEYADRNLYDIAHDIIKFMLDIDENYAPAYELKGSLLVEQGKIEEGIKFLDKAVEIDPWLVQAYASLGEAYYNLGDYEKAIHYWERELEYNPNDKITYFMITEAYYEMNRKDLAVKTLERLLEIDPDNIPALYQLSQLYRELGNEEKAREMEEKIMNCKPKYPTELEPWARVMLKHGRYKEVAEELEKIVESSPLNTLARLLLVVPYVKLGQIDKAREILDDIGQSNFWYYYGKKEILDELLTEEEKRACGIS	failed
MAEILRAENIKKVIRGYEILKGISLSVKKGEFVSIIGASGSGKSTLLYILGLLDAPTEGKVFLEGKEVDYTNEKELSLLRNRKLGFVFQFHYLIPELTALENVIVPMLKMGKPKKEAKERGEYLLSELGLGDKLSRKPYELSGGEQQRVAIARALANEPILLFADEPTGNLDSANTKRVMDIFLKINEGGTSIVMVTHERELAELTHRTLEMKDGKVVGEITRV	not failed
